According to the domain aggregation screens of Martell et al. (2025):

Assay: soluble fraction after stress (log2 fold change); higher = more stays soluble; pooled small domains, quantitative proteomics
Conditions: stress: 75 degC
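Also: 20 min heating vs room temperature control held 20 min.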

Sequence	soluble fraction (log2)
HMLGYGEQEREAQKYLEMHTAFQADPSLQKMYLPENQYALISKVMEMTGIKNVKSYLTPPNEL	-0.193
HMYDNTVTKYVNSLSVYVRKGPSTSDEIVTSLIKDTDVTVVGENGEWYKIKYKEFEGYIYKNLLSDNKT	-1.91
HMMLVKKMLNGIMMKEITIKELADQYDVSTRTIQLKIKKLGYEWDSKESIYRYVGKESEPLDVDFSTLI	-3
HMSPSSPNQILGQYPKTKNDIILSSGRYGPYLKYNKKNYSLGNNISVEKLSLEEAVKIIDLKDKK	-0.291
HMSQDPLETYYPQWSAAVKQSNPDAEIIRDTDGKYYVEGMTKNRVAVIYENPHLVRLVNATTNVHVE	0.0377
HMKMLPAEVLTHPAVVALIERGAPTGSITPEEVRQASEDAAVEPRHLKALLAHLSALGISVQIP	-0.303
HMYNPAYDAEIKVILELARHGYWEEARERADELLKAAPDDTGVKRIQTWVRQQEQRMREQAIEDSIRA	-0.288
HMYTDGVPALTDLKKESKPGRRQYVGVEDIPKVLGGLGITILSTSKGLMSGHQAKKKNIGGELIASV	0.102
HMDLEELSNKMNNVFESLSSDLRDIIIMSDIEGLSYEEISHKINIPIGTVRSRLHRARDLMVRVIKEN	-0.517
HMAQRFDLGDKLNPQSSEFEYLGTSSRTGVSTYRYKNVPTQLFFGRQIGDIVVGVRRGMITLTIYNL	0.0868
HMTSPKSRIVSALLASPSRPEELAMRLGEDILTLMRTLTDFEASGIIQRLPDGRYTPTREYHLGLVDK	-0.12
HMEPSERYKALQSLLPDYAKRLKKKGVTRHQLFLEYRLTHPDGYARSRFGTYFQAYLALSHP	-2.32
HMPSHALFWTLLKEVPGYDPHYKDVIKEGIVHEHSGGRTTSLSEMYTKYPREYSLMIEAMKG	-0.475
HMLDYITLSPQELGKLLSAGNGDAAMVYLYMKATGDVTLKQAETQLGMTNQNLAWAESLLKRLGLMD	-1.9
HMGIEQVELASRVRDAVDSLPHHLREIILLSYFQKMSYNQIAETLQVPLGTVKSRLHAAVASFAQAWTQSS	-0.712
HMRTANREKRIEASVKMMKAGYPVGYIIARVFMYEGWEEDYRQLLIYLSEKIPKDVSNPITFEVIS	-0.622
HMKSFDERQAALNELAKVIEGTGRKAEQDAEFRREQNQLMIDKIDEQLKGDLTDSQREELKKERAALARK	0.174
HMEPMLEIFDAKIDLADVLAVESGLVRLRGGAEVTSPRVDVDAGARLELDSGARLNVERLSY	0.155
HMRGLFTVYMVGEKASRVGELDEEMVYESRIGDVFALGATSWRIEEITHDRVLVSPAYGQPGRLPFWH	-2.13
HMGQPAVSSRDVAEQFGKEHRNVIQSIKNLIAENSALTFMFIEDTYTAGTGKKYPMYYMNRDGFTLLA	0.337
HMEDQITNQQFTMTKQSILDLLVKKSYPPYELANELHLKKEEVLPIIRFLIAENEIHFKDGMLHLPH	-1.01
HMIKVAANESNRSDVLEIVRLFRVRVVDVNPESLTIEATGAEGKIDALLGLLEHYGVIELVRSGAVAVT	-1.86
HMIETIIGAEGKVLETIDNFNQKGVVALAGKEWTARSADASIIPEGAKVSVVEISGVKLIVTQN	0.251
HMAPPIQQQVESLMNSFAKIGVTVPMLESRLQHAMSAVTANELVMLRKIGASIRDGFATVAEQFPA	-1.14
HMDLSQTVQAKALARVNVREGAGTHFKSLGKLKKGELLPVFRVGNSWASIWWKGRVAYVHTDYLRFESA	-1.98
HMFYNELMNFIVYKDSQKIGKIVNINDKLPQPVFEVLINDKKFMVPIHDDFIEKIDKEKKSIHIVIPDGLL	-0.684

Sequence	soluble fraction (log2)
HMKRTLLLEGRTIPYELTQKPVKNINIRVHADGSVRVSAGPWVSPEAVDAVLRQRSAFLLRALDQFAAQAP	-1.91
HMNENDPRVIKTRRLLLDSFVVLVRKKDFTSISVKDITDSAQVNRATFYAHFQDKYDILEYMVID	0.0912
HMGTGIKQVNVVSVIGQDEETAKTTLTNLGLKVNVTYATSTSDNGKVTKQSIDAGKTVDEGTSVTITVNKV	≥ 1.04
HMREKLKEYVHLLFAGTVGKEDMEQEILQNTLDRFDDWVARGFSEEDAYRKAVSGIGDIDALLG	-0.0221
HMIGDNNELFQKAQLTPREKEVALLLLQGETNSDIAKILYVGLSTVKKHISSIFEKTKVKSRTEFISKVR	-1.6
HMAPPPPEGYIHRWIRESVMGFDDKKNLSARIREGFELVRAEEYPDYEAPTVMDGKHAGVIANGGLLLARF	-0.201
HMTTMNSADLIKELEKAGWTLRGVKGSHHIYTHPARGGHLSVPHPKKDLGAGLARQLRKQAGL	-0.032
HMWNKGETKIPTQAQNELIKRRQAGATWTSLSEWLKATYGIDIHRTNIQRWYDKEVYLDQEN	-0.531
HMRLSVRQRMSDVLGALKTQAFVEFTQLFRPQEGRMGVTVTFSAILELLREGLIEIVQSEPFAPIHVRAGA	0.183
HMEKLSMLKIKELFRLAIEMNLSHRQIAQSLNVSHTVVNRYLKRFKKSNLSYETLLKLGDKEIISALYEH	-3.67
HMYPEETVNKILDVSMQLFLEKGYEHTSIQDIVNHLGGLSKGAIYHHFKSKEDILDGVMNKLYQNN	-1.58
HMRLPVELTDREVEVLRLLAQAMSNGEIARELYIGEATVKTHVSNVLQKLGARDRVAAVVWAHRYGL	-2.08
HMDKSPVLQLNRDVPAGQQISADDFRTVEIGADGAFRSVPSSDLNAMVGSYAKVRLIAGTLLAREALQSG	0.0261
HMTGMEKFLTIPSIRESTAAFEREYLIHYLDENAWQVSKTAAAIGIERTTLYKKMKQLGIVPIEE	-3.22
HMAPDDTAVWSAFIGWFRTAPDGPNPLGAYAAKLGEEGLDAAEVGRRMTVIVRLFAEKPEGAEVFYDRTYA	-2.66
HMITLYIHNLEEVGKRLDHYLVSNLDDHSRSQIQSWIRSGSILVNDRSVKTGYSLELNDQILINPPK	-2.51
HMDRSVTAAELRLAAMDLLARREHGSQELEAKLSRRFHKRHYDVELLRSVIEQLTVEGLLSDERFAVS	-0.951
HMLPLLAFDEKLNRLGYGGGFYDRTLASLAHKGNTITAIGIAYESQKMDKVPTGYFDRPLDGVLTPSGLIM	0.0528
HMRRMTEEQSKLFQGLVSIVQTTLVADMEKGAVTPLLIAEKVDFVADNLYPGKDIDRKEAVAELIRRFSLW	-1.67
HMNFGEVLQTKRKSMGLTQEDLADKLFVSSETISNWETNKTTPDIDNVIRISQLFDISLNNLLL	-0.415
HMKTNQINVSGLSKEKNFEVLESLDVYKFYNLFFLNKIKIDQLINSYNHIDNYSVFKKYPSSLIVKLSE	0.0213
HMNNENELSSIISKVLEENPAEKERFLNGEKKLAGFFMGKIMKATKGTADPKKAAQLLNEIL	0.311
HMAVQEDAGLAREDLPPEVQGLLQEREAARAAKDWGKSDALRRQLQDLGYAIKDTAQGMEIKRT	0.817
HMNMENIADKIGKIYESLPEDLKLMIKYRDIDDLTYDEIAVKADLPVGTVRSRLHRAREQLLKELEKN	-0.233
HMKQLNKRQNDILSFAEKQGYVSVENLAKLFSVTQQTIRRDINYLSDNELLVRTHGGAYYSS	-1.18
HMKDTNENLMKMLALLIHAAKIDENYSDEEKELIVNFAEMSSKENLNREQILSIIKSAEEYE	-1.24

Sequence	soluble fraction (log2)
HMNVNVSFTQLRHKAEHAIQAKNWSEARNLLTLATLMRPTHRNVARRLKAVEQRNRLFRRLLLILTHRKV	-0.429
HMQWLDSIRSRLRVGQTISYFEPRENASSSGLIIELRRKRVLVLEIATQKRWLIEYAAINVDG	-0.279
HMTRTEYMAQLEKYLKKLPHKEFQEAITFFNEYFDEAGPEKETAIMEELGSPKEAASELITNILNRHI	-0.433
HMIEGETPEQTMERVSKDPEIVQILQDPVMQGILAQARENPAALQDHMKNPEVYKKINMLIAAGVIRT	0.278
HMIHQPNNETTRNLIAGVVKKSLSVWETRVQVDGVDVTTAKDNLAEVHINIRYRLRHNQTPASLGLRLNLG	-0.0232
HMLKLSGEESQQLALRLREELARRRITRQGLADAAKISISTLEQVLAGRRTFTLATIVRLEEGLGIKLL	-2.65
HMAGIPIHMSQLKQIILLLSQGYPIKGIARETGVSRNTIKGYLQTLTSQDLNVTDALKLENIQLEYLLRSP	-1.97
HMSETAEFIIQVNGKVRAKLQLPTDISKEEIQKLALADENVQKYLNGEPRKIIFPPNTRLVSIV	-0.315
HMGAVGISQKVTSLETAVLGKNFAKDPLIDRVARLEQTVLPKQAEANASLSLPERVSKLLEKVPIAAG	0.109
HMTSRWEIGYNVAKKYYDEHGNLDVERAVYDNFELKKWLNTQRYKNSAGTLAEKYKIKLDELGMNWER	-0.214
HMDRRDEYHQHLLRLLLSGEIRDKDELQRRKVKLSGEYGLAGVPKNSETLALVPPDRLPEVLDILR	-0.214
HMQDGTILPGQKTAIRSLATSGGYDSQDLDTYLATTYGKSIDGLTRTEGADVIKAFQAGTVAK	0.436
HMLEQEDMYGYQMIETLRERSEHSFDLKAGTLYPLLHALEQKGLITARDEASAAGRPRRYYHLTDAG	-0.354
HMVDQVDKDRFLEALTQLGGSAGNVRLRETLQWEEEVYVIIKDALVKSGTILTGRGRGGSVLLASA	-0.95
HMTGNWRQMHKVKSKETIYGIAKEYGITVDELTKANPGMEAPGYTLKKGDYIFIPYATADANV	-0.432
HMNVEKLREMYPEGTKIILQEMQGESRMAKGLKGTVTHVDDAGQIHMKWENGSSLVLNVEVDTFKKIE	0.0771
HMSEQLVGTVGHITVGTARTASPAEAKFLDAFEQPHYLLVEPIEPKDIFQQGDKVVLVKKQHHSWLATRYI	-1.2
HMAPSLQISLKQAIITAQQQHPGSKALNADFDGARGTPRYVIETLLPTGELRELTIDAQSGQVMEDHPDR	0.234
HMEEGKVKRMAMDMVDAFYDKVSAMVDDNNDLGRSVVDAWDDEEENPPEYMLDDETRAILVNAGKIEPE	0.298
HMSWEELLEHLEKAAERGEEVRIAGVTLHDEEDFKRALRWLKEWL	-2.7
HMDKSRPVLRVGDSGDWVSKLQTALLEFGYRVAVDGVFGEHTKSAVVHFQNGRRLIADGVVGNLTWDALL	-2.4
HMVEIPEFKITTFVNTDNEQIAEFENGFTDKKAEITFNNTKYVFKEKLPDQDGIRTYVYEELHE	0.141
HMQSITAGDKVRVKNYTVSGGKKRGKVYGGAGTFVVYYEKYDVISVTGDRVVIGIGKAVTAAVHIDDLEK	-2.07
HMENKIIKNAAHATLKVKKDAGIEITTELIREAVILFHRIYSPNDNPNINWERIINELESHYT	-3.66
HMGEAAIYRINILINNLNVRSGPGTLYPRLRRADFPGEYDIFEEKNGFGRISNTKSEWVSLNTQYVQRLT	-2.8
